Test results reported in US7700101B2, “Reagents and method for modulating Dkk-mediated interactions” (Wyeth, priority 2001, dated 2010).
Residue numbers refer to the chain shown, from its start. Numbers in names are those of the source. Entries after “also recorded” stand apart in the source; their conditions may differ.

Tests used:
[1] = test system: Wnt pathway (TCF-luciferase reporter); test: TCF-luciferase assay of LRP5 variants in U2OS cells; format: cell-based, human; conditions: for susceptibility to modulation by Dkk / activation of TCF-luciferase reporter construct: U2OS cells; for susceptibility to modulation by Dkk: in the presence of Dkk1 and Wnt1; for activation of TCF-luciferase reporter construct: in the presence of Wnt
Description: Site-directed mutants of LRP5 were generated in the full-length human LRP5 cDNA using the QuikChange XL-Site-Directed Mutagenesis Kit (catalog #200516, Stratagene, La Jolla, Calif.) following the manufacturers protocol. The mutant sequences were introduced using complementary synthetic oligonucleotides:
All constructs were sequence verified to ensure that only the engineered modification was present in the gene. Once verified, each variant was functionally evaluated in the TCF-luciferase assay in U2OS cells (essentially as described in Example 7. Other functional evaluations could also be performed, such as the Xenopus embryo assay (essentially as described in Example 6), or other assays to evaluate Wnt signaling, Dkk modulation, or anabolic bone effect. Binding of these mutants to Dkk, LRP-interacting proteins, Dkk-interacting proteins, or peptide aptamers to any of the preceding could also be investigated in a variety of ways such as in a two-hybrid system (such as in yeast as described in this application), or other methods.
U2OS human osteosarcoma cells were also utilized. U2OS cells (ATCC) were seeded into 96-well plates at 30,000 cells per well in 200 ul of the growth media (McCoy's 5A) containing 10% (v/v) heat-inactivated FBS, 1X penicillin streptomycin, and 1×Glutamax-1, and incubated overnight at 37° C. The following day, the media was replaced with OptiMEM (Invitroge) and cells were transfected using […] (as described by the manufacturer, Invitrogen) with. 0.005 μg/well of LRP5, HBM, LRP6 or contoI plasmid DNA (empty vector pcDNA3.1) and either Wnt1 (0.0025 ug/well) or Wnt3a (0.0025 ug/well) plasmid DNA. In addition, the 16x-(AS) TCF-TK-firefly-luciferase (Ramesh Bhat, WHRI, Wyeth) and control TK-renilla luciferase (Promega Corp.) were co-transfected at 0.3 ug/well and 0.06 ug/well respectively in all experiments. […] In other experiments, cells were co-transfected with 0.005 μg/well of LRP5, 0.0025 ug/well of Wnt1 or Wnt3 a (using […] of a control pcDNA3.1) with LRP5-interacting aptamers (0.05 ug/well). Cells were cultured for an additional 18-20 hours at 37° C. Culture medium was removed. Cells were then lysed with 100 μl/well of 1X Passive Lysis Buffer (PLB) of Dual Luciferase Reagent kit (DLR-kit-Promega Corp.) 20 μl of the lysates were combined with LARII reagent of DLR-kit and assayed for TCF-firefly luciferase signal in Top Count (Packard) instrument. After measuring the Firefly readings, 100 μl of the “Stop and Glo” reagent of DLR kit that contains a quencher and a substrate for renilla luciferase was added into each well. Immediately the renilla luciferase reading was measured using the Top Count (Packard) Instrument. The ratios of the TCF-firefly luciferase to control renilla readings were calculated for each well and the mean ratio of triplicate or more wells was expressed in all data.

endogenous LRP5/6 = test: Cell-based TCF reporter high-throughput assay, endogenous LRP5/6; design: species or system human; conditions: U2OS cells
Description: To develop a high throughput assay, the TCF-luciferase assay described in Example 7 was modified utilizing low level expression of endogenous LRP5/6 in U2OS and HEK293 cells. […] Using U2OS (human osteosarcoma) and HEK293 (ATCC) cells, the TCF-luciferase and tk-Renilla reporter element constructs were co-transfected along with Wnt3a/1 and Dkk.

HBM = target: T1, HBM (Homo sapiens, UniProt O75197, G171V); test: TCF-luciferase assay in HOB-03-CE6 cells, HBM; format: cell-based; conditions: Wnt3a, FIG. 15
T1 construct: Full length Zmax/LRP5 and HBM ORF cDNA; expressed in transfected cells; host or cells: HOB-03-CE6 osteoblastic cells; U2OS osteosarcoma cells; HEK293
Method: (§1) HOB-03-CE6 osteoblastic cells developed by Wyeth Ayerst (Philadelphia, Pa.) were seeded into 24-well plates at 150,000 cells per well in 1 ml of the growth media (D-MEM/F12 phenol red-free) containing 10% (v/v) heat-inactivated FBS, 1×penicillin streptomycin, and 1X Glutamax-1, and incubated overnight at 34° C. The following day, the cells were transfected using Lipofectamine 2000® (as described by the manufacturer, Invitrogen) in OptiMEM (Invitrogen) with 0.35 μg/well of LRP5, HBM, or control plasmid DNA (empty vector pcDNA3.1) and either Wnt1 or Wnt3 a plasmid DNA. […] All wells were transfected with 0.025 μg/well of CMV beta-galactosidase plasmid DNA and 0.35 μg/well 16X TCF(ASyluciferase reporter DNA (developed by Ramesh Bhat, Wyeth-Ayerst (Philadelphia, Pa.)). After 4 hours of incubation, the cells were rinsed and 1 ml of fresh growth media was added to each well. The cells were cultured overnight at 34° C., followed by a wash and a change of media. Cells were cultured for an additional 18-24 hours at 37° C. Cells were then lysed with 50 μl/well of 1X lysis buffer. The extracts were assayed for beta-galactosidase activity (Galacto Reaction Buffer Diluent & Light Emission Accelerator, Tropix) using 5 μl extract+50 μl beta-galactosidase diluent and luciferase activity (Luciferase Assay Reagent, Promega) using 20 μl extract.

LRP6 [2] = target: T2, LRP6 (Homo sapiens, UniProt O75581); conditions: cited from earlier work
Target sequence in this assay (O75581 20-1613, species assumed): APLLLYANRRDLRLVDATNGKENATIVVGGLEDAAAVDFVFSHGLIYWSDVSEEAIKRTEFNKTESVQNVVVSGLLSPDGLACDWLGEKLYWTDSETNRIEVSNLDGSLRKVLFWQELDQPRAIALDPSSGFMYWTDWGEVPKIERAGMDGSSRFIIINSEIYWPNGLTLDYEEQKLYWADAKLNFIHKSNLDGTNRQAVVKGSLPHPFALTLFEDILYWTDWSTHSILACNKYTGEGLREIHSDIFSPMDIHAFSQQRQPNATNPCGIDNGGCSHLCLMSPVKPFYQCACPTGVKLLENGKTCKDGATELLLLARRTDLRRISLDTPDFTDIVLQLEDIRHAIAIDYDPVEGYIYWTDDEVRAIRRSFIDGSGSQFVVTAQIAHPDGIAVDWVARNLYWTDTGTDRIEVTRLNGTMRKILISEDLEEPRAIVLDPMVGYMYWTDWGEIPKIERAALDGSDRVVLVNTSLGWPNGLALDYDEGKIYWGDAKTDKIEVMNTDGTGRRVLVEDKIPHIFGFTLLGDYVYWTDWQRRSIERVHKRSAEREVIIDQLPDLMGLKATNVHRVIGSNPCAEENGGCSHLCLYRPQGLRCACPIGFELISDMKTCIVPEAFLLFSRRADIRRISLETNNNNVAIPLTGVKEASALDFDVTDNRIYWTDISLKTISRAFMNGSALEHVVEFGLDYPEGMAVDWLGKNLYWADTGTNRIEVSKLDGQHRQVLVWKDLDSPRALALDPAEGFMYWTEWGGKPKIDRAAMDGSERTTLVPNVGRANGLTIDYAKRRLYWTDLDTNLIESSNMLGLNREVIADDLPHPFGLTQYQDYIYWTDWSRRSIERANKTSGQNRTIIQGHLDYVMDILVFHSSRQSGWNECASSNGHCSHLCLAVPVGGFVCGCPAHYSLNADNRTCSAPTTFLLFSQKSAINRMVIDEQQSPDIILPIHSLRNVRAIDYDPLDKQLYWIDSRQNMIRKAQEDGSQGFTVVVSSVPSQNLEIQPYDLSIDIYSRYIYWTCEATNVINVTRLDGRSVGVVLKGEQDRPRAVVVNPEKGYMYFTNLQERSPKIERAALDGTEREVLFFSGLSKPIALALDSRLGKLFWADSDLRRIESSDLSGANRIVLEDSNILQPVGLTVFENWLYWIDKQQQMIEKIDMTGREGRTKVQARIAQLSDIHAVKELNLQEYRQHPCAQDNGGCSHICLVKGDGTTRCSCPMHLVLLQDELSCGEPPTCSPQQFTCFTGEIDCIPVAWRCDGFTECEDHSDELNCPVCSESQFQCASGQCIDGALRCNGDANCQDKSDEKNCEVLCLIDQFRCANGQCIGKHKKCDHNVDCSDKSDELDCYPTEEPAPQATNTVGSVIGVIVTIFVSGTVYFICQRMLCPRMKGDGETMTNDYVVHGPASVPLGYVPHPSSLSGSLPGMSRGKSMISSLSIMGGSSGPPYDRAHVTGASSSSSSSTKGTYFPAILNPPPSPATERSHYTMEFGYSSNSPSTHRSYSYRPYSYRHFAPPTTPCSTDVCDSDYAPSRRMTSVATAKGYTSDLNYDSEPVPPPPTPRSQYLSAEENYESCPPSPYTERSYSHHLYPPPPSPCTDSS

LRP6 [3] = target: T2, LRP6; test: TCF-luciferase assay in HOB-03-CE6 cells, LRP6; format: cell-based; design: Full length LRP6 was isolated from the pED6dpc4 vector; expressed in transfected cells; host or cells: HOB-03-CE6 osteoblastic cells; U2OS osteosarcoma cells; HEK293
Target sequence in this assay (O75581 20-1613): as the sequence (O75581 20-1613, species assumed) above

LRP5 = target: T3, LRP5 (Homo sapiens, UniProt O75197); test: TCF-luciferase assay in HOB-03-CE6 cells, LRP5; format: cell-based; conditions: Wnt3a, FIG. 15
T3 construct: Site-directed mutants of LRP5 were generated in the full-length human LRP5 cDNA; expressed in transfected cells; host or cells: HOB-03-CE6 osteoblastic cells; U2OS osteosarcoma cells; HEK293
Method: as §1, with “DNA. Similar experiments were performed with LRP6 plasmid DNA (0.35 μg/well) or a control pEDdpc4 empty vector.” for “DNA.”

LRP5 LBD = test: Yeast-2 hybrid interaction trap LRP5 LBD-LexA / Gal4AD-Dkk; format: binding; conditions: FIG. 18
Description: Small molecule inhibitors (or partial inhibitors) of the Dkk-LRP interaction may be an excellent osteogenic therapeutic. One way to investigate this important protein-protein interaction is using Y2H techniques substantially as described above and as is well known in the art. […] This interaction is quantitated using a reporter element known in the art, e.g., LacZ or luciferase, which is only activated when bait and prey interact. The Y2H assay is used to screen for compounds which modulate the LRP-Dkk interaction. Such a modulation would be visualized by a reduction in reporter element activation signifying a weaker or disrupted interaction, or by an enhancement of the reporter element activation signifying a stronger interaction. Thus, the Y2H assay can be used as a high-throughput screening technique to identify compounds which disrupt or enhance Dkk interaction with LRP5/LRP6/HBM, which may serve as potential therapeutics.
For example, the Interaction Trap methodology can be used as follows. […] With the LRP5LBD-LexA bait and the Gal4AD-Dkk prey, over a 20-fold activation of a lacZ reporter (under the control of a single LexA operator) was detected over the background. […] As a result, small molecules may be identified that modulate this interaction between LRP and Dkk.

canonical Wnt signaling = conditions: Semenov et al.; cited from earlier work

LRP5 LBD, sequence (as listed by the source): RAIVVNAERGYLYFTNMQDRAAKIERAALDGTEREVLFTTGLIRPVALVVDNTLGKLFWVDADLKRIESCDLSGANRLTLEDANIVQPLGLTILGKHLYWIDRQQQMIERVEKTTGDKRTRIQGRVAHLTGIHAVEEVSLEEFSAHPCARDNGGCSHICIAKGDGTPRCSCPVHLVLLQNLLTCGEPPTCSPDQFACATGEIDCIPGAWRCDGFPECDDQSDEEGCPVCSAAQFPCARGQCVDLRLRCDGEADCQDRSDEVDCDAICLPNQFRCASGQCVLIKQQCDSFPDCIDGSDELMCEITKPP
T3 sequence (O75197 32-1615): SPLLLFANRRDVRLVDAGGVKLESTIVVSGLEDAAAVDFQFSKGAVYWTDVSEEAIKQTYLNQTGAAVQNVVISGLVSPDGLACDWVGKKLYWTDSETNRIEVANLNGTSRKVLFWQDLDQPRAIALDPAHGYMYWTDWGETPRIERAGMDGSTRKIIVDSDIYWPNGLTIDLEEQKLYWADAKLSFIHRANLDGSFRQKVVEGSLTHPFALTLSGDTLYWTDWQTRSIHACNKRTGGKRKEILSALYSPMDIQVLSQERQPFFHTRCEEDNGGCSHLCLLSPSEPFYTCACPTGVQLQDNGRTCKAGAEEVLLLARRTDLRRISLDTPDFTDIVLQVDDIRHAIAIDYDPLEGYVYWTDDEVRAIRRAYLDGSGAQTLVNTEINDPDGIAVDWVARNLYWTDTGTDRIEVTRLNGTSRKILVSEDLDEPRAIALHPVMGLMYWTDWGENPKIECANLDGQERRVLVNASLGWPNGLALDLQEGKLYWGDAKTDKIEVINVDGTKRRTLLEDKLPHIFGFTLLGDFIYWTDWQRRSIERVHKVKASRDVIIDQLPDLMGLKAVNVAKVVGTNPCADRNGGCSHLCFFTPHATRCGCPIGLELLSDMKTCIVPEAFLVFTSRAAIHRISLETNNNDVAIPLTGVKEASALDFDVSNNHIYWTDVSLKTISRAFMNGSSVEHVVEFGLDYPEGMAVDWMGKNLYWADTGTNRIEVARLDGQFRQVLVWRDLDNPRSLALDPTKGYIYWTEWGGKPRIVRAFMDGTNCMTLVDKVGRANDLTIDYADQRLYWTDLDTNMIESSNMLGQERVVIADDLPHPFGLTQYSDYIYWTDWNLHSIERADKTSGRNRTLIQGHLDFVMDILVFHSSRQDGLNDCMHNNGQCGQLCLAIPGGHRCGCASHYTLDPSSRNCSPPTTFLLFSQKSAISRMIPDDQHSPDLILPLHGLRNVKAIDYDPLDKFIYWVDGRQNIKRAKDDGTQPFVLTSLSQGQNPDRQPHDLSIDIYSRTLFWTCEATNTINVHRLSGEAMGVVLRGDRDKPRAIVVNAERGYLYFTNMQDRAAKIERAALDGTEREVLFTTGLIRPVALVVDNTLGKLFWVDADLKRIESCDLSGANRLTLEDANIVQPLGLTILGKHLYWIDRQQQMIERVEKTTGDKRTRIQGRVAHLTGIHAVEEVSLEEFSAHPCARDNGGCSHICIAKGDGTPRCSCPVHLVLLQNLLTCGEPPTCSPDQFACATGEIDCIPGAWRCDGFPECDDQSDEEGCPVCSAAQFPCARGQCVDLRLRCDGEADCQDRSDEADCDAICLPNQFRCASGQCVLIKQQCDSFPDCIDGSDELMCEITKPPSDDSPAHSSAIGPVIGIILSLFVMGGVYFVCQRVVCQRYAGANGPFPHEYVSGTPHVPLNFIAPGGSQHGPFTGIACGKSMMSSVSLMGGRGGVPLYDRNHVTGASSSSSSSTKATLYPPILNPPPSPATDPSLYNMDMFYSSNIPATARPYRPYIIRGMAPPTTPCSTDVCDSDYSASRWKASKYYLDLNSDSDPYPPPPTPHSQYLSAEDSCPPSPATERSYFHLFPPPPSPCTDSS
T1 sequence (O75197 32-1615 G171V): as the sequence (O75197 32-1615) above, with G140V counted along it

A214V: site-directed variant of human LRP5, position equivalent to 171 in blade 5
HBM effect / HBM activity [1]: demonstrated HBM activity

G171F: site-directed variant of human LRP5 in propeller 1, introduces a ringed side-chain
HBM effect / HBM activity [1]: results in an HBM effect; also recorded: demonstrated HBM activity | susceptibility to modulation by Dkk [1]: less susceptible than LRP5 | activation of TCF-luciferase reporter construct [1]: greater activation of the Wnt pathway than LRP5; also recorded: able to activate the TCF-luciferase reporter construct

G171K: site-directed variant of human LRP5, introduces a charged side-chain
HBM effect / HBM activity [1]: demonstrated HBM activity

G171Q: site-directed variant of human LRP5, introduces the propeller 4 residue
HBM effect / HBM activity [1]: demonstrated HBM activity

M282V: site-directed variant of human LRP5, accessible interior position in blade 1
HBM effect / HBM activity [1]: results in an HBM-effect; also recorded: demonstrated HBM activity | susceptibility to modulation by Dkk [1]: less susceptible than LRP5 | activation of TCF-luciferase reporter construct [1]: activation of the Wnt pathway; also recorded: able to activate the TCF-luciferase reporter construct

B1: Dkk-1-AP: Dkk-1 modified with alkaline phosphatase (protein)
chain: TLNSVLNSNAIKNLPPPLGGAAGHPGSAVSAAPGILYPGGNKYQTIDNYQPYPCAEDEECGTDEYCASPTRGGDAGVQICLACRKRRKRCMRHAMCCPGNYCKNGICVSSDQNHFRGEIEETITESFGNDHSTLDGYSRRTTLSSKMYHTKGQEGSVCLRSSDCASGLCCARHFWSKICKPVLKEGQVCTKHRRKGSHGLEIFQRCYCGEGLSCRIQKDHHQASNSSRLHTCQRH
modifications: left off: large carriers
notes: Dkk-1 modified with alkaline phosphatase
modulation of TCF signal without Wnt DNA transfection (endogenous LRP5/6; no Wnt3a/Wnt1 transfection, FIG. 21): can be modulated

B2: Dkk-2: human Dickkopf-2, Dkk family member, full length cDNA (protein, UniProt Q9UBU2 1-259, looked up)
chain: MAALMRSKDSSCCLLLLAAVLMVESSQIGSSRAKLNSIKSSLGGETPGQAANRSAGMYQGLAFGGSKKGKNLGQAYPCSSDKECEVGRYCHSPHQGSSACMVCRRKKKRCHRDGMCCPSTRCNNGICIPVTESILTPHIPALDGTRHRDRNHGHYSNHDLGWQNLGRPHTKMSHIKGHEGDPCLRSSDCIEGFCCARHFWTKICKPVLHQGEVCTKQRKKGSHGLEIFQRCDCAKGLSCKVWKDATYSSKARLHVCQKI
modifications: full-length
notes: human Dickkopf-2, Dkk family member, full length cDNA
HBM/Wnt3a mediated TCF-luciferase activity (HBM): able to antagonize the TCF-luciferase activity | Kd (LRP6 [2]; Mao et al., classical biochemical ligand-receptor studies): 0.73 nM | LRP6/Wnt1 mediated TCF-luciferase activity (LRP6 [3]; Wnt1, FIG. 14): had no effect | LRP6/Wnt3a mediated TCF-luciferase activity (LRP6 [3]; Wnt3a, FIG. 15): able to antagonize LRP6/Wnt3a mediated TCF-luciferase activity | LRP5/Wnt3a mediated TCF-luciferase activity (LRP5): able to antagonize the TCF-luciferase activity

B3: Dkk-1 mutant (C220A): Dkk-1 mutant where cysteine 220 was changed to alanine (protein)
chain: B1 chain with C189A
interaction with LRP5 in yeast (LRP5 LBD): interaction was reduced | interaction with LRP5 in yeast (LRP5 LBD; listed as mutant Dkk-1 (C220A)): unable to bind to LRP5 | repression of Wnt signaling (canonical Wnt signaling): unable to repress Wnt signaling | LRP6 binding (LRP6 [2]; Semenov et al.): abolished LRP6 binding | repression of Wnt3a-mediated TCF reporter signaling (endogenous LRP5/6; Wnt3a, FIG. 19): lack of TCF-reporter inhibition
